From paper PMC3950679
Where a chain is given by its changes, count along the chain named.

Tests used:
[1] = target: T1, Cid1 WT (Schizosaccharomyces pombe, UniProt O13833 40-377); test: EMSA
T1 sequence: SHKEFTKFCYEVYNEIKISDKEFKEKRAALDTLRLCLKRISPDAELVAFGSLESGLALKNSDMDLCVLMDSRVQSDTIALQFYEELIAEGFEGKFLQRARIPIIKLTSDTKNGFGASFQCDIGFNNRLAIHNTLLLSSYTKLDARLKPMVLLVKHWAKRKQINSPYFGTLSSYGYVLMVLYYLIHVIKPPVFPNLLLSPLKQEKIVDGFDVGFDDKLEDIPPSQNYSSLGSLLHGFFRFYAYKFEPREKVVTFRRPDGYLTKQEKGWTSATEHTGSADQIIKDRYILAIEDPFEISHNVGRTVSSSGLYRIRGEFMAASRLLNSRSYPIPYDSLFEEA

[2] = target: T2, Cid1 D160A (Schizosaccharomyces pombe, UniProt O13833 40-377, D160A); test: EMSA
T2 sequence: T1 sequence with D121A

UUUUUUUUUUUUUUU (ssRNA) [U15]
Kd [1]: ~1000 nM
Kd [2]: ~1000 nM
